One block for each molecule: values may come before it. No end group written: not given here. *: point of attachment. 5FAM = O=C1OC2(c3ccc(O)cc3Oc3cc(O)ccc32)c2ccc(C(=O)*)cc21; GABA = NCCCC(=O)O
B2: His6-tagged wild-type AFF4^ELLBow (AFF4 301–351) (peptide, UniProt Q9UHB7 301-351, looked up)
chain: PSQPLDASASGDVSCVDEILKEMTHSWPPPLTAIHTPCKTEPSKFPFPTKE

Columns and labels:
[1] = biological target: ELL2^Occ–(Gly-Ser)4–AFF4^ELLBow (human) (UniProt O00472); assay: SEC; Hiload 16/60 (GE) gel filtration; elution volumes; 44 kDa and 17 kDa markers shown in panel a
[2] = biological target: Sumo-ELL2^Occ, wild type (human) (UniProt O00472); assay: fluorescence polarisation
[3] = biological target: AFF4, endogenous (human (endogenous in HEK 293T)) (UniProt Q9UHB7)
Chain of AFF4, endogenous (human (endogenous in HEK 293T)) (Q9UHB7 whole entry): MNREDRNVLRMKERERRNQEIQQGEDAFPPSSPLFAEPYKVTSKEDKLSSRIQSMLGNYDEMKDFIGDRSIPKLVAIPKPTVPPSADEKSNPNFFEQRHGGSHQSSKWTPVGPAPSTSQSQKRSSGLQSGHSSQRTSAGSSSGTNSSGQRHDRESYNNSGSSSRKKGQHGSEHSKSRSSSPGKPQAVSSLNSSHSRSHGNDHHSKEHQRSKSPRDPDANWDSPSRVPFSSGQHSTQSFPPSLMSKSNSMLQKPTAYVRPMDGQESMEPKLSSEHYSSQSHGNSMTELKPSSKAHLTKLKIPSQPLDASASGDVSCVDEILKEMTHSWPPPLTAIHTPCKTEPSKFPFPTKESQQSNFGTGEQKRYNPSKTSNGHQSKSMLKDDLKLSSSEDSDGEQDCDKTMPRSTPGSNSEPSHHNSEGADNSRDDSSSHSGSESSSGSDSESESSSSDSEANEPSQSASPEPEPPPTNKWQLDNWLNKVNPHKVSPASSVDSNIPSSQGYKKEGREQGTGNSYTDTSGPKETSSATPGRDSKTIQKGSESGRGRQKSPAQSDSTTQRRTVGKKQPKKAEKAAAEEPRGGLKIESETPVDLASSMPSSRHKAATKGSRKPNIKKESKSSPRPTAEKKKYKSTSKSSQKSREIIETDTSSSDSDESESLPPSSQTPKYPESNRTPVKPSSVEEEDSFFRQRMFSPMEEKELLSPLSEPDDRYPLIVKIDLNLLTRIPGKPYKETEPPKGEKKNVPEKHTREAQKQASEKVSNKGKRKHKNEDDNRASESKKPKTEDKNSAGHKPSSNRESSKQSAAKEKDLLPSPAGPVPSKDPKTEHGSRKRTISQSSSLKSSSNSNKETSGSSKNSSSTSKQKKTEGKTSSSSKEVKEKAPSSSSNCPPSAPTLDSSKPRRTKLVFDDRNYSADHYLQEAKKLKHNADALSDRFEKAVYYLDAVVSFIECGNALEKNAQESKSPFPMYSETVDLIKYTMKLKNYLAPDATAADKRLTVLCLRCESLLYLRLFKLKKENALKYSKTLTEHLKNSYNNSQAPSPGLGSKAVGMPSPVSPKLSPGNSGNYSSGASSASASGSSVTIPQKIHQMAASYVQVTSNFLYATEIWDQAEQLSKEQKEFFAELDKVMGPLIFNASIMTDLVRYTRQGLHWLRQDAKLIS

Sumo-ELL2^Occ (human) = Sumo-ELL2^Occ (human) (UniProt O00472); assay: fluorescence polarisation
Sumo-ELL2^Occ = biological target: T1, Sumo-ELL2^Occ (human, UniProt O00472 519-640); assay: fluorescence polarisation; conditions: both partners purified
T1 sequence (looked up): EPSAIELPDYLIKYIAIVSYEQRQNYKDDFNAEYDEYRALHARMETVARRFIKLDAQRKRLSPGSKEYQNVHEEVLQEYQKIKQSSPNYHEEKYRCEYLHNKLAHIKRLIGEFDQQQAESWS

Sumo-ELL2^Occ, wild type = biological target: T2, Sumo-ELL2^Occ, wild type (human, UniProt O00472 519-640); assay: fluorescence polarisation; conditions: both partners purified
T2 sequence (looked up): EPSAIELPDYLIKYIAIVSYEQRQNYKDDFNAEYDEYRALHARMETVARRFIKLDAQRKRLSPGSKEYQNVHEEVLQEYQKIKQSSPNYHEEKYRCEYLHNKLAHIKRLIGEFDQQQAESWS

[4] = biological target: T3, ELL2^Occ (ELL2 residues 519–640), the ELL2 part of the crystallised fusion (human, UniProt O00472 519-640, selenomethionine (SeMet crystals used for phasing and refinement)); assay: crystal structure; conditions: both partners purified
T3 sequence (looked up): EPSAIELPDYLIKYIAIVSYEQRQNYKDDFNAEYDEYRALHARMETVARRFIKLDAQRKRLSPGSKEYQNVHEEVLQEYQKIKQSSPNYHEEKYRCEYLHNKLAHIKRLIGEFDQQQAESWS

[5] = biological target: B2; assay: pull-down; conditions: both partners purified

Molecule: ELL2^Occ–(Gly-Ser)4–AFF4^ELLBow (from UniProt O00472 519-640; Q9UHB7 301-351)
- stoichiometry N [1]: 2

Molecule: His-tagged AFF4^ELLBow (301–351) D317P/E317P (from UniProt Q9UHB7 301-351) (peptide)
- other [2]: 10 fold

Molecule: HA-tagged ELL2^H559E/H608E/N619A/K625T (from UniProt O00472 1-640) (natural protein)
- other (fold less than wild type) [3]: 5

Molecule: His6-AFF4^ELLBow P328G/P329G (from UniProt Q9UHB7 301-351) (domain or fragment)
- Kd (Sumo-ELL2^Occ (human)): 0.27 µM

B1: His6-AFF4^ELLBow L331D (domain or fragment, human, UniProt Q9UHB7 301-351, looked up)
chain: PSQPLDASASGDVSCVDEILKEMTHSWPPPDTAIHTPCKTEPSKFPFPTKE
- Kd (Sumo-ELL2^Occ): 1.6 ± 0.31 µM

Molecule: B2
- Kd (Sumo-ELL2^Occ, wild type): 0.086 µM

B4: His6-AFF4^ELLBow F345D/F347D (domain or fragment, human, UniProt Q9UHB7 301-351, looked up)
chain: PSQPLDASASGDVSCVDEILKEMTHSWPPPLTAIHTPCKTEPSKDPDPTKE
- Kd (Sumo-ELL2^Occ): 0.13 ± 0.058 µM

B9: His6-AFF4^ELLBow E322H (domain or fragment, human, UniProt Q9UHB7 301-351, looked up)
chain: PSQPLDASASGDVSCVDEILKHMTHSWPPPLTAIHTPCKTEPSKFPFPTKE
- Kd (Sumo-ELL2^Occ): 0.13 ± 0.033 µM

B10: His6-AFF4^ELLBow W327D (domain or fragment, human, UniProt Q9UHB7 301-351, looked up)
chain: PSQPLDASASGDVSCVDEILKEMTHSDPPPLTAIHTPCKTEPSKFPFPTKE
- Kd (Sumo-ELL2^Occ): 0.37 ± 0.086 µM

B11: His6-AFF4^ELLBow L331D/I334D (domain or fragment, human, UniProt Q9UHB7 301-351, looked up)
chain: PSQPLDASASGDVSCVDEILKEMTHSWPPPDTADHTPCKTEPSKFPFPTKE
- Kd (Sumo-ELL2^Occ): 1.9 ± 0.51 µM

B14: His6-AFF4^ELLBow I334D (domain or fragment, human, UniProt Q9UHB7 301-351, looked up)
chain: PSQPLDASASGDVSCVDEILKEMTHSWPPPLTADHTPCKTEPSKFPFPTKE
- Kd (Sumo-ELL2^Occ): 0.67 ± 0.21 µM

B15: His6-AFF4^ELLBow M323D (domain or fragment, human, UniProt Q9UHB7 301-351, looked up)
chain: PSQPLDASASGDVSCVDEILKEDTHSWPPPLTAIHTPCKTEPSKFPFPTKE
- Kd (Sumo-ELL2^Occ): 2.7 ± 1.14 µM

B16: His6-AFF4^ELLBow T332K (domain or fragment, human, UniProt Q9UHB7 301-351, looked up)
chain: PSQPLDASASGDVSCVDEILKEMTHSWPPPLKAIHTPCKTEPSKFPFPTKE
- Kd (Sumo-ELL2^Occ): 0.069 ± 0.037 µM

B20: His6-AFF4^ELLBow V316D (domain or fragment, human, UniProt Q9UHB7 301-351, looked up)
chain: PSQPLDASASGDVSCDDEILKEMTHSWPPPLTAIHTPCKTEPSKFPFPTKE
- Kd (Sumo-ELL2^Occ): 0.23 ± 0.048 µM

B22: His6-AFF4^ELLBow K321P (domain or fragment, human, UniProt Q9UHB7 301-351, looked up)
chain: PSQPLDASASGDVSCVDEILPEMTHSWPPPLTAIHTPCKTEPSKFPFPTKE
- Kd (Sumo-ELL2^Occ): 0.24 ± 0.06 µM

B23: His6-AFF4^ELLBow I319D/L320D (domain or fragment, human, UniProt Q9UHB7 301-351, looked up)
chain: PSQPLDASASGDVSCVDEDDKEMTHSWPPPLTAIHTPCKTEPSKFPFPTKE
- Kd (Sumo-ELL2^Occ): 5.4 ± 1.87 µM

B26: His6-AFF4^ELLBow D317P/E318P (domain or fragment, human, UniProt Q9UHB7 301-351, looked up)
chain: PSQPLDASASGDVSCVPPILKEMTHSWPPPLTAIHTPCKTEPSKFPFPTKE
- Kd (Sumo-ELL2^Occ): 0.8 ± 0.18 µM

B28: His6-AFF4^ELLBow P342D (domain or fragment, human, UniProt Q9UHB7 301-351, looked up)
chain: PSQPLDASASGDVSCVDEILKEMTHSWPPPLTAIHTPCKTEDSKFPFPTKE
- Kd (Sumo-ELL2^Occ): 0.2 ± 0.05 µM

B30: AFF4 WT, 318-350 peptide (peptide, UniProt Q9UHB7 318-350, looked up)
peptide: EILKEMTHSWPPPLTAIHTPCKTEPSKFPFPTK
- Kd (Sumo-ELL2^Occ): 4 ± 1.57 µM

Continued, values first:

- binding result [4]: binds
B3: AFF4^ELLBow (AFF4 residues 301–351), the AFF4 part of the crystallised fusion (domain or fragment, human, UniProt Q9UHB7 301-351, looked up)
chain: PSQPLDASASGDVSCVDEILKEMTHSWPPPLTAIHTPCKTEPSKFPFPTKE
modifications: not fully specified (residue 23); cysteine pairing not given here

- Kd (Sumo-ELL2^Occ, wild type): > 3 µM
B5: His-tagged AFF4^ELLBow (301–351) I319D/L320D/M323D (peptide, UniProt Q9UHB7 301-351, looked up)
chain: PSQPLDASASGDVSCVDEDDKEDTHSWPPPLTAIHTPCKTEPSKFPFPTKE

- other (Sumo-ELL2^Occ, wild type): > 25 fold
B6: His-tagged AFF4^ELLBow (301–351) M323D (peptide, UniProt Q9UHB7 301-351, looked up)
chain: PSQPLDASASGDVSCVDEILKEDTHSWPPPLTAIHTPCKTEPSKFPFPTKE

- binding result [5]: binds
B7: GST-ELL2 (519–640) H608E (domain or fragment, human, UniProt O00472 519-640, looked up)
chain: EPSAIELPDYLIKYIAIVSYEQRQNYKDDFNAEYDEYRALHARMETVARRFIKLDAQRKRLSPGSKEYQNVHEEVLQEYQKIKQSSPNYEEEKYRCEYLHNKLAHIKRLIGEFDQQQAESWS

- other (Sumo-ELL2^Occ, wild type): 3 fold
B8: His-tagged AFF4^ELLBow (301–351) double 328–329 Pro–Gly mutant (peptide, UniProt Q9UHB7 301-351, looked up)
chain: PSQPLDASASGDVSCVDEILKEMTHSWGGPLTAIHTPCKTEPSKFPFPTKE

- binding result [5]: binds
B12: GST-ELL2 (519–640) H559E (domain or fragment, human, UniProt O00472 519-640, looked up)
chain: EPSAIELPDYLIKYIAIVSYEQRQNYKDDFNAEYDEYRALEARMETVARRFIKLDAQRKRLSPGSKEYQNVHEEVLQEYQKIKQSSPNYHEEKYRCEYLHNKLAHIKRLIGEFDQQQAESWS

- other (Sumo-ELL2^Occ, wild type): > 25 fold
B13: His-tagged AFF4^ELLBow (301–351) I319D/L320D (peptide, UniProt Q9UHB7 301-351, looked up)
chain: PSQPLDASASGDVSCVDEDDKEMTHSWPPPLTAIHTPCKTEPSKFPFPTKE

- other (Sumo-ELL2^Occ, wild type): ~20 fold
B17: His-tagged AFF4^ELLBow (301–351) L331D (peptide, UniProt Q9UHB7 301-351, looked up)
chain: PSQPLDASASGDVSCVDEILKEMTHSWPPPDTAIHTPCKTEPSKFPFPTKE

- binding result [5]: binds
B18: GST-ELL2 (519–640) K625T (domain or fragment, human, UniProt O00472 519-640, looked up)
chain: EPSAIELPDYLIKYIAIVSYEQRQNYKDDFNAEYDEYRALHARMETVARRFIKLDAQRKRLSPGSKEYQNVHEEVLQEYQKIKQSSPNYHEEKYRCEYLHNKLAHITRLIGEFDQQQAESWS

- other (Sumo-ELL2^Occ, wild type): ~3 fold
B19: His-tagged AFF4^ELLBow (301–351) P342D (peptide, UniProt Q9UHB7 301-351, looked up)
chain: PSQPLDASASGDVSCVDEILKEMTHSWPPPLTAIHTPCKTEDSKFPFPTKE

- other (Sumo-ELL2^Occ, wild type): 4 fold
B21: His-tagged AFF4^ELLBow (301–351) W327D (peptide, UniProt Q9UHB7 301-351, looked up)
chain: PSQPLDASASGDVSCVDEILKEMTHSDPPPLTAIHTPCKTEPSKFPFPTKE

- other (Sumo-ELL2^Occ, wild type): 8 fold
B24: His-tagged AFF4^ELLBow (301–351) I334D (peptide, UniProt Q9UHB7 301-351, looked up)
chain: PSQPLDASASGDVSCVDEILKEMTHSWPPPLTADHTPCKTEPSKFPFPTKE

- other (Sumo-ELL2^Occ, wild type): < 2 fold
B25: His-tagged AFF4^ELLBow (301–351) F345D/F347D (peptide, UniProt Q9UHB7 301-351, looked up)
chain: PSQPLDASASGDVSCVDEILKEMTHSWPPPLTAIHTPCKTEPSKDPDPTKE

- other (Sumo-ELL2^Occ, wild type): < 2 fold
B27: His-tagged AFF4^ELLBow (301–351) E322H (peptide, UniProt Q9UHB7 301-351, looked up)
chain: PSQPLDASASGDVSCVDEILKHMTHSWPPPLTAIHTPCKTEPSKFPFPTKE

- binding result (Sumo-ELL2^Occ, wild type): binds
B29: fluorescently labelled AFF1^ELLBow peptide 358–390 (peptide)
peptide: {5FAM-GABA}-EILKEMTHSWPPPLTAIHTPSTAEPSKFPFPTK-NH2
SMILES: CC[C@H](C)[C@H](NC(=O)[C@H](C)NC(=O)[C@@H](NC(=O)[C@H](CC(C)C)NC(=O)[C@@H]1CCCN1C(=O)[C@@H]1CCCN1C(=O)[C@@H]1CCCN1C(=O)[C@H](Cc1c[nH]c2ccccc12)NC(=O)[C@H](CO)NC(=O)[C@H](Cc1c[nH]cn1)NC(=O)[C@@H](NC(=O)[C@H](CCSC)NC(=O)[C@H](CCC(=O)O)NC(=O)[C@H](CCCCN)NC(=O)[C@H](CC(C)C)NC(=O)[C@@H](NC(=O)[C@H](CCC(=O)O)NC(=O)CCCNC(=O)c1ccc2c(c1)C(=O)OC21c2ccc(O)cc2Oc2cc(O)ccc21)[C@@H](C)CC)[C@@H](C)O)[C@@H](C)O)C(=O)N[C@@H](Cc1c[nH]cn1)C(=O)N[C@H](C(=O)N1CCC[C@H]1C(=O)N[C@@H](CO)C(=O)N[C@H](C(=O)N[C@@H](C)C(=O)N[C@@H](CCC(=O)O)C(=O)N1CCC[C@H]1C(=O)N[C@@H](CO)C(=O)N[C@@H](CCCCN)C(=O)N[C@@H](Cc1ccccc1)C(=O)N1CCC[C@H]1C(=O)N[C@@H](Cc1ccccc1)C(=O)N1CCC[C@H]1C(=O)N[C@H](C(=O)N[C@@H](CCCCN)C(N)=O)[C@@H](C)O)[C@@H](C)O)[C@@H](C)O
notes: also called fluorescent peptide

Source: publication PMC5290273 (Nature Communications, 2017)
